The supplement of paper PMC9112550, “Optimization of the antimicrobial peptide Bac7 by deep mutational scanning” (BMC Biology, 2022)

system: Escherichia coli TOP10; assay: shrunken log2 fold change of peptide-encoding DNA abundance (4.5 h post-induction vs induction); higher = less antimicrobial activity (less host growth inhibition); details: time post-induction: 4.5 h; library: site-saturation at positions 5, 18, 19, 20
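Also: peptides expressed intracellularly from a pBAD plasmid library in pooled LB shake-flask culture, induced with 0.3% L-arabinose, DNA abundance read by NGS, three biological replicates, DESeq2 with apeglm shrinkage.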

Sequence	shrunken log2 fold change
RRIRFRPPRLPRPRPRPTGCPRP	0.125
RRIRVRPPRLPRPRPRPFSPPRP	-0.363
RRIRPRPPRLPRPRPRPGMKPRP	-0.257
RRIRERPPRLPRPRPRPRFRPRP	0.0352
RRIRERPPRLPRPRPRPPQDPRP	0.113
RRIRTRPPRLPRPRPRPQIHPRP	-0.15
RRIRARPPRLPRPRPRPLFSPRP	-0.124
RRIRTRPPRLPRPRPRPAQHPRP	0.0266
RRIRKRPPRLPRPRPRPMDLPRP	0.198
RRIRHRPPRLPRPRPRPSAKPRP	-0.324
RRIRGRPPRLPRPRPRPNCVPRP	0.543
RRIRQRPPRLPRPRPRPATYPRP	-0.287
RRIRDRPPRLPRPRPRPCMCPRP	-0.0426
RRIRDRPPRLPRPRPRPQDPPRP	-0.213
RRIRWRPPRLPRPRPRPHPFPRP	-0.42
RRIRRRPPRLPRPRPRPLPDPRP	0.112
RRIRFRPPRLPRPRPRPKMRPRP	0.223
RRIRERPPRLPRPRPRPGEIPRP	0.0895
RRIRKRPPRLPRPRPRPWNIPRP	-0.275
RRIRQRPPRLPRPRPRPMRYPRP	0.0851
RRIRRRPPRLPRPRPRPNSQPRP	-0.154
RRIRWRPPRLPRPRPRPFFCPRP	0.104
RRIRRRPPRLPRPRPRPQTQPRP	0.506
RRIRWRPPRLPRPRPRPVCHPRP	0.0811
RRIRMRPPRLPRPRPRPQNGPRP	0.0258

Sequence	shrunken log2 fold change
RRIRNRPPRLPRPRPRPYMNPRP	-0.207
RRIRSRPPRLPRPRPRPCFGPRP	-0.217
RRIRARPPRLPRPRPRPTRHPRP	0.615
RRIRCRPPRLPRPRPRPGFWPRP	0.226
RRIRRRPPRLPRPRPRPYPCPRP	0.253
RRIRYRPPRLPRPRPRPVAEPRP	-0.0801
RRIRNRPPRLPRPRPRPKQMPRP	0.267
RRIRERPPRLPRPRPRPPQYPRP	-0.517
RRIRHRPPRLPRPRPRPFVGPRP	-0.31
RRIRMRPPRLPRPRPRPQYMPRP	-0.969
RRIRDRPPRLPRPRPRPARFPRP	0.446
RRIRARPPRLPRPRPRPRTIPRP	0.148
RRIRHRPPRLPRPRPRPHVAPRP	-0.208
RRIRQRPPRLPRPRPRPDGRPRP	0.0192
RRIRGRPPRLPRPRPRPHYMPRP	0.00569
RRIRCRPPRLPRPRPRPTYDPRP	-0.609
RRIRERPPRLPRPRPRPVKAPRP	-0.0316
RRIRARPPRLPRPRPRPWTMPRP	-0.0418
RRIRPRPPRLPRPRPRPWTKPRP	0.0459
RRIRMRPPRLPRPRPRPMYAPRP	0.0486
RRIRWRPPRLPRPRPRPMALPRP	-0.0125
RRIRHRPPRLPRPRPRPMQWPRP	0.00884
RRIRGRPPRLPRPRPRPDECPRP	-0.00184
RRIRFRPPRLPRPRPRPTFIPRP	-0.44
RRIRMRPPRLPRPRPRPGVHPRP	0.0493

Sequence	shrunken log2 fold change
RRIRERPPRLPRPRPRPRMWPRP	0.302
RRIRQRPPRLPRPRPRPLAKPRP	-0.041
RRIRKRPPRLPRPRPRPWVKPRP	-0.148
RRIRRRPPRLPRPRPRPDVAPRP	0.592
RRIRPRPPRLPRPRPRPFTSPRP	-0.512
RRIRPRPPRLPRPRPRPMEAPRP	0.177
RRIRQRPPRLPRPRPRPNMKPRP	-0.336
RRIRWRPPRLPRPRPRPVNDPRP	0.118
RRIRHRPPRLPRPRPRPPFSPRP	-0.166
RRIRIRPPRLPRPRPRPGAKPRP	0.126
RRIRDRPPRLPRPRPRPRWSPRP	0.264
RRIRLRPPRLPRPRPRPCQSPRP	-0.0018
RRIRLRPPRLPRPRPRPHFDPRP	-0.212
RRIRVRPPRLPRPRPRPFLAPRP	-0.219
RRIRERPPRLPRPRPRPELYPRP	-0.0287
RRIRHRPPRLPRPRPRPHHLPRP	-0.0119
RRIRYRPPRLPRPRPRPMGMPRP	-0.188
RRIRLRPPRLPRPRPRPWWQPRP	-0.179
RRIRRRPPRLPRPRPRPHCGPRP	-0.0836
RRIRQRPPRLPRPRPRPFSWPRP	-0.0597
RRIRSRPPRLPRPRPRPEIVPRP	0.412
RRIRERPPRLPRPRPRPVMVPRP	0.204
RRIRCRPPRLPRPRPRPQWFPRP	-0.106
RRIRSRPPRLPRPRPRPFDQPRP	-0.256
RRIRWRPPRLPRPRPRPQPCPRP	0.179

Sequence	shrunken log2 fold change
RRIRMRPPRLPRPRPRPFCTPRP	-0.0819
RRIRVRPPRLPRPRPRPNIEPRP	-0.616
RRIRNRPPRLPRPRPRPGYAPRP	-0.0974
RRIRCRPPRLPRPRPRPKHDPRP	-0.0567
RRIRHRPPRLPRPRPRPICWPRP	0.0429
RRIRTRPPRLPRPRPRPGIYPRP	-0.279
RRIRVRPPRLPRPRPRPRMKPRP	-0.167
RRIRERPPRLPRPRPRPWQQPRP	0.015
RRIRRRPPRLPRPRPRPLTSPRP	0.233
RRIRHRPPRLPRPRPRPELKPRP	0.127
RRIRSRPPRLPRPRPRPATSPRP	0.0483
RRIRGRPPRLPRPRPRPDFPPRP	0.414
RRIRNRPPRLPRPRPRPFTMPRP	-0.149
RRIRYRPPRLPRPRPRPLHSPRP	-0.803
RRIRMRPPRLPRPRPRPDHVPRP	-0.0107
RRIRTRPPRLPRPRPRPPMCPRP	0.0176
RRIRDRPPRLPRPRPRPACWPRP	0.929
RRIRARPPRLPRPRPRPGYIPRP	-0.383
RRIRNRPPRLPRPRPRPEPRPRP	0.635
RRIRPRPPRLPRPRPRPVEFPRP	0.068
RRIRGRPPRLPRPRPRPGWWPRP	0.113
RRIRYRPPRLPRPRPRPAFVPRP	-0.178
RRIRIRPPRLPRPRPRPRFMPRP	-0.143
RRIRYRPPRLPRPRPRPEDSPRP	-0.0108
RRIRTRPPRLPRPRPRPCSDPRP	-0.104

Sequence	shrunken log2 fold change
RRIRRRPPRLPRPRPRPCHQPRP	-0.172
RRIRWRPPRLPRPRPRPWMSPRP	-0.353
RRIRQRPPRLPRPRPRPISPPRP	-0.0311
RRIRKRPPRLPRPRPRPRTTPRP	0.792
RRIRTRPPRLPRPRPRPYWYPRP	-0.574
RRIRCRPPRLPRPRPRPWSGPRP	-0.0937
RRIRLRPPRLPRPRPRPLHDPRP	-0.149
RRIRERPPRLPRPRPRPYIFPRP	-0.15
RRIRIRPPRLPRPRPRPQTIPRP	-0.337
RRIRKRPPRLPRPRPRPQPTPRP	0.5
RRIRCRPPRLPRPRPRPIFYPRP	-0.32
RRIRKRPPRLPRPRPRPKWSPRP	0.506
RRIRWRPPRLPRPRPRPQEQPRP	0.0647
RRIRTRPPRLPRPRPRPEHTPRP	-0.174
RRIRERPPRLPRPRPRPVIFPRP	-0.392
RRIRGRPPRLPRPRPRPFKKPRP	0.0278
RRIRYRPPRLPRPRPRPNSWPRP	-0.0916
RRIRRRPPRLPRPRPRPYTKPRP	-0.284
RRIRVRPPRLPRPRPRPRVFPRP	0.218
RRIRERPPRLPRPRPRPATTPRP	-0.0752
RRIRIRPPRLPRPRPRPICTPRP	-0.458
RRIRFRPPRLPRPRPRPKNNPRP	-0.504
RRIRRRPPRLPRPRPRPGTIPRP	-0.502
RRIRGRPPRLPRPRPRPADDPRP	0.563
RRIRDRPPRLPRPRPRPRPPPRP	0.935

Sequence	shrunken log2 fold change
RRIRSRPPRLPRPRPRPWILPRP	-0.0844
RRIRFRPPRLPRPRPRPEAHPRP	0.171
RRIRYRPPRLPRPRPRPPQGPRP	-0.0838
RRIRKRPPRLPRPRPRPKSWPRP	0.308
RRIRGRPPRLPRPRPRPLIQPRP	0.827
RRIRDRPPRLPRPRPRPEKMPRP	-0.00458
RRIRLRPPRLPRPRPRPSMPPRP	-0.4
RRIRMRPPRLPRPRPRPQKMPRP	0.0453
RRIRCRPPRLPRPRPRPCVQPRP	-0.153
RRIRGRPPRLPRPRPRPLFFPRP	0.415
RRIRKRPPRLPRPRPRPMGGPRP	0.0559
RRIRTRPPRLPRPRPRPETSPRP	0.199
RRIRMRPPRLPRPRPRPCTRPRP	-0.0828
RRIRFRPPRLPRPRPRPNWGPRP	0.0529
RRIRDRPPRLPRPRPRPLRWPRP	0.274
RRIRFRPPRLPRPRPRPFGPPRP	-0.159
RRIRFRPPRLPRPRPRPLTHPRP	-0.0881
RRIRQRPPRLPRPRPRPFFWPRP	0.314
RRIRFRPPRLPRPRPRPRYYPRP	-0.617
RRIRDRPPRLPRPRPRPHGIPRP	-0.265
RRIRFRPPRLPRPRPRPFAQPRP	-0.263
RRIRRRPPRLPRPRPRPFGNPRP	-0.18
RRIRERPPRLPRPRPRPGRAPRP	0.367
RRIRSRPPRLPRPRPRPTKTPRP	-0.0829
RRIRERPPRLPRPRPRPVSMPRP	-0.295
